Results reported in PMC6390181, “Ovalbumin Epitope [sequence] Self-Assembles into a Supramolecular Hydrogel” (Scientific Reports, 2019).

Target: the molecule itself
Experiment: hydrogel formation (visual inspection, rheology); purified peptide dissolved in Millipore water at 0.5% or 1% (w/v); room temperature; gel seen at once (1%) or after overnight incubation (0.5%); rheology after 24 h; the analogue was followed for 72 h

B1: OVA257-264 octapeptide SIINFEKL (peptide)
peptide: SIINFEKL
notes: ovalbumin (OVA), residues 257-264; Assembles into nanofibrils and a hydrogel; the number of peptides in an assembly is not defined; source: synthetic peptide (Fmoc-SPPS, purified by RP-HPLC)
  binding result: binds
